Test results from the supplement of paper PMC10065799, “High-throughput profiling of sequence recognition by tyrosine kinases and SH2 domains using bacterial peptide display” (eLife, 2023).

Columns and labels:
c-Src SH2 = test: SH2 binding enrichment of the phosphorylated peptide, bacterial display (enrichment ratio); higher = better substrate or ligand; peptides without Tyr show the background
SHP2-C SH2 = test: as above
Grb2 SH2 = Grb2 SH2 (UniProt P62993); test: as above
c-Abl (mouse) = test: phosphorylation enrichment, bacterial display (enrichment ratio); higher = better substrate or ligand; peptides without Tyr show the background
FGFR1 = FGFR1 (UniProt P11362); test: as above
Chain of FGFR1 (P11362 whole entry, looked up): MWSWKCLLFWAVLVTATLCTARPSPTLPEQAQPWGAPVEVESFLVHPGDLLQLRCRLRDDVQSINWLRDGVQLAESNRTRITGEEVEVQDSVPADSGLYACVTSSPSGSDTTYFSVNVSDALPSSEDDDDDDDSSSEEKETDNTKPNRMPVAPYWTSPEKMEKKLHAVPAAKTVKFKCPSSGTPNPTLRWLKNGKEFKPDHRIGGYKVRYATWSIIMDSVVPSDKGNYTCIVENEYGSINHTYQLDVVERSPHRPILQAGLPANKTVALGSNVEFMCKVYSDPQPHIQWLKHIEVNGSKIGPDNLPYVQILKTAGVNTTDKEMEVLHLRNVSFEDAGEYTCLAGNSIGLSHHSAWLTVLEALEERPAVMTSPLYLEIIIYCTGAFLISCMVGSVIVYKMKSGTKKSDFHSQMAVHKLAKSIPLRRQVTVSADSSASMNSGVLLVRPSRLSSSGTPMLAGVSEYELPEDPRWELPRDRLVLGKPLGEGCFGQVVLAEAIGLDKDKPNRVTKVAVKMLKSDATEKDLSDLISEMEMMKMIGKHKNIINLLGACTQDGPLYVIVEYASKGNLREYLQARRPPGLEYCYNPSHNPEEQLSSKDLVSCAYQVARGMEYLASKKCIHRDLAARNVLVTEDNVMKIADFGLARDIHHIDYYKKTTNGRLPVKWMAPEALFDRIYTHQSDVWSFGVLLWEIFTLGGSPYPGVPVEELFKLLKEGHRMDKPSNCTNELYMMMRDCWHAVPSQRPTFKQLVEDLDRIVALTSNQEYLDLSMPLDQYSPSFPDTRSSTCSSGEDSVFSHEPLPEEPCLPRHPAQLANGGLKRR

EPHB1 = EPHB1 (UniProt P54762); test: as above
Chain of EPHB1 (P54762 whole entry, looked up): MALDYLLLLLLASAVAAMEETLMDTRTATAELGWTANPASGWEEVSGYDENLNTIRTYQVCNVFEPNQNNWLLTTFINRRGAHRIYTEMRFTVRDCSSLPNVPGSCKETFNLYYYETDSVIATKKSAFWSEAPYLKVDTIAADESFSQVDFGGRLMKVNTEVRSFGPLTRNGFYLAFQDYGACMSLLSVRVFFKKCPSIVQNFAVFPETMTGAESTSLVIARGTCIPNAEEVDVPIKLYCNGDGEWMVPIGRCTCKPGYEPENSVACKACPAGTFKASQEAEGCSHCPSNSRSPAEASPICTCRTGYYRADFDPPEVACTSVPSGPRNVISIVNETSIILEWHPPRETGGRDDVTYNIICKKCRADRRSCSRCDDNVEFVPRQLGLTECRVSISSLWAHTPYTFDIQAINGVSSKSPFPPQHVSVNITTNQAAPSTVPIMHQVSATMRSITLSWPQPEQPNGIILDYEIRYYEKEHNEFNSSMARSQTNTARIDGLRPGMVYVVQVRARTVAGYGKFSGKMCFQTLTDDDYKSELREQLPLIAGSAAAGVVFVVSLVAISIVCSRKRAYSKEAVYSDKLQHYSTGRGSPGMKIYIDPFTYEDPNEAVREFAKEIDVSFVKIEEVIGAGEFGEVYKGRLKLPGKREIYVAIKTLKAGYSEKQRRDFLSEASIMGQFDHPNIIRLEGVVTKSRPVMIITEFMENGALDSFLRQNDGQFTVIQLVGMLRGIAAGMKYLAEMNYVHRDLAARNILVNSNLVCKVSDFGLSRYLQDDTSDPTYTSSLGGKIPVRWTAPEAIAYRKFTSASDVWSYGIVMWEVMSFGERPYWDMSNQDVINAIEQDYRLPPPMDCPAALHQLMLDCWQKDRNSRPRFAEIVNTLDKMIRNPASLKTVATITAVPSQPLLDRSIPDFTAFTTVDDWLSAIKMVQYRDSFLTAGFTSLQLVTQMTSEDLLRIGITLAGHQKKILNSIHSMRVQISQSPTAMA

FGFR3 = FGFR3 (UniProt P22607); test: as above
AncSZ = test: as above
Fer (mouse) = test: as above
c-Src = test: as above
Jak2 = Jak2 (UniProt O60674); test: as above
Chain of Jak2 (O60674 whole entry, looked up): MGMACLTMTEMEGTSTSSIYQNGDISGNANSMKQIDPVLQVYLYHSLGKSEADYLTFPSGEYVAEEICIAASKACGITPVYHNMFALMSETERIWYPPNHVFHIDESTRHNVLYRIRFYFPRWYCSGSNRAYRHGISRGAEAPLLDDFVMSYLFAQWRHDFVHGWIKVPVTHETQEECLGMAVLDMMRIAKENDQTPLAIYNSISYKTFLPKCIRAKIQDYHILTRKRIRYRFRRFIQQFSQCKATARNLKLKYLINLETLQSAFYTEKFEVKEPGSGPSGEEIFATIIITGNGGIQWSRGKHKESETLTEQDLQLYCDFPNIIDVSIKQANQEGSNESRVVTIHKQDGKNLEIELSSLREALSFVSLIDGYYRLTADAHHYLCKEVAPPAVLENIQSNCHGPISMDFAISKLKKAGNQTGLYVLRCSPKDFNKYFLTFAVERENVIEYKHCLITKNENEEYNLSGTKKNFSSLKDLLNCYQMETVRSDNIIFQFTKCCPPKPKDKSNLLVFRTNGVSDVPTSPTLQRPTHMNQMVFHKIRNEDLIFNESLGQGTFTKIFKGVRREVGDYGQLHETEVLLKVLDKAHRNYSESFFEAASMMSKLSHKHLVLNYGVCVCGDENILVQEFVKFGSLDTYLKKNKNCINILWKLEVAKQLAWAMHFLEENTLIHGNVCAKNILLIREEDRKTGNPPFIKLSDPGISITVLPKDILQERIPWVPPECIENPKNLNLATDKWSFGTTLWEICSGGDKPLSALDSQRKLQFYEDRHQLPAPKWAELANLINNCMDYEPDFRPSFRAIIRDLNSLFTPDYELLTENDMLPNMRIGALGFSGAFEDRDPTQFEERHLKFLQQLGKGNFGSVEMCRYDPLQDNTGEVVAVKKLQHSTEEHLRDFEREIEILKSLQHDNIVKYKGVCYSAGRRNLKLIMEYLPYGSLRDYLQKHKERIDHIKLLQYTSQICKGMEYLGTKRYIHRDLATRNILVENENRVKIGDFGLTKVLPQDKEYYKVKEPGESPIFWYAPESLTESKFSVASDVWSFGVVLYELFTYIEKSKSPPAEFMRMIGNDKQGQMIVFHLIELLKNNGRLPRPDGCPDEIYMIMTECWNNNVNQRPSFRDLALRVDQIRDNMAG

EPHB2 = EPHB2 (UniProt P29323); test: as above
Chain of EPHB2 (P29323 whole entry, looked up): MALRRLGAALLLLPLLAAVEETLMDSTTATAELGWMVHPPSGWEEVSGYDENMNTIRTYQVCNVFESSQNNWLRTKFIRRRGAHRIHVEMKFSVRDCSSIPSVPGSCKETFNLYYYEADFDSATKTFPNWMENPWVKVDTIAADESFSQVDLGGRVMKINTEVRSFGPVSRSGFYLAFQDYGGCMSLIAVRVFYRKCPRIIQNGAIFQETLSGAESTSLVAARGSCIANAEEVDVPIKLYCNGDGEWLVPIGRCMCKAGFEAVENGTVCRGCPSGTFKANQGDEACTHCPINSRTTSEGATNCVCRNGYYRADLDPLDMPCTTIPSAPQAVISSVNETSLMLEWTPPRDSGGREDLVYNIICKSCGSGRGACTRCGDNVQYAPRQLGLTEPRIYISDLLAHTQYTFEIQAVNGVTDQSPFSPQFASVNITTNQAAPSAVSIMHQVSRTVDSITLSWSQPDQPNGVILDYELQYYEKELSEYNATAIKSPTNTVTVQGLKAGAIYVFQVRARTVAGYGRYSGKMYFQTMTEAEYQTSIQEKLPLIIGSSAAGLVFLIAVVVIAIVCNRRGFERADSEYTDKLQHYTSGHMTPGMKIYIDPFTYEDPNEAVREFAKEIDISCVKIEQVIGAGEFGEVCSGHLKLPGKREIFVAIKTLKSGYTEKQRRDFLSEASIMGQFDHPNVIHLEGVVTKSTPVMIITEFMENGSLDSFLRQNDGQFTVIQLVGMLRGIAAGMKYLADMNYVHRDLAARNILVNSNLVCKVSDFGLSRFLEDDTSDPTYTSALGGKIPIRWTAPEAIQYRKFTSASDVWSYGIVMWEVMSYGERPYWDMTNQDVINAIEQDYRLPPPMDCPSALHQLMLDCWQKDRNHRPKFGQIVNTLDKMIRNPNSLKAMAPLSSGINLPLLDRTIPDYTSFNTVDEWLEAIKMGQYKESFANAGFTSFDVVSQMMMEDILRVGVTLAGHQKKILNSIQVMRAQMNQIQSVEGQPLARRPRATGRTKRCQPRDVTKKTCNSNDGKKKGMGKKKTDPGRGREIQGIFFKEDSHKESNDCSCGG

Fyn = Fyn (UniProt P06241); test: as above
Chain of Fyn (P06241 whole entry, looked up): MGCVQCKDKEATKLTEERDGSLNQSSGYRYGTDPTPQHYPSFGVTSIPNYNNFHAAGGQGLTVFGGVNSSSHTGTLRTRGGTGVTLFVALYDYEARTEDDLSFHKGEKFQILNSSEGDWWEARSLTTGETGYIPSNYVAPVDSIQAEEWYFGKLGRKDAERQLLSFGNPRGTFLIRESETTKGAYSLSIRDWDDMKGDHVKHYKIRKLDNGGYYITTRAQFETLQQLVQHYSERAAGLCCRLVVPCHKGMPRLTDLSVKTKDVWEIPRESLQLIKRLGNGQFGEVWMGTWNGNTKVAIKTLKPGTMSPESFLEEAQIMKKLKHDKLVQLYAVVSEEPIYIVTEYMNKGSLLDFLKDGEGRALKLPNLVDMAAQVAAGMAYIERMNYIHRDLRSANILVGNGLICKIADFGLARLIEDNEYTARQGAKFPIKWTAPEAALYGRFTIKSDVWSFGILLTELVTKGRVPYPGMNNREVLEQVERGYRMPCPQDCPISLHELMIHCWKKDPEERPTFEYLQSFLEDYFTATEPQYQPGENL

Fes = Fes (UniProt P07332); test: as above
Hck = Hck (UniProt P08631); test: as above
MERTK = MERTK (UniProt Q12866); test: as above
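Throughout, for SH2 binding enrichment of the phosphorylated peptide, bacterial display: peptide library displayed on the E. coli surface as eCPX fusions, selected cells deep-sequenced, score is each peptide's frequency after selection divided by its frequency in the input.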
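Throughout, for phosphorylation enrichment, bacterial display: 11-residue human phosphosite peptides and single-mutation variants displayed on the E. coli surface, counted by deep sequencing, each peptide's frequency after selection divided by its frequency in the unselected input library; frequency after pTyr selection over input frequency; kinase dosed for 20-30% of maximal phosphorylation in three min.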

Chain of Grb2 SH2 (P62993 whole entry, looked up): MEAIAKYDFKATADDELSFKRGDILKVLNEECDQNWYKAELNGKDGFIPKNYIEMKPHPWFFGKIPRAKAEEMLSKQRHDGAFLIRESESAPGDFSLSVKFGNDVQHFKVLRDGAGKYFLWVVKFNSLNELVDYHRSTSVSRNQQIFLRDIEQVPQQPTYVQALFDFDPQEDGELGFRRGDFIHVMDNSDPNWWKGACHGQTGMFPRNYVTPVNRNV

| Sequence | SH2 binding enrichment (c-Src SH2) | SH2 binding enrichment (SHP2-C SH2) | SH2 binding enrichment (Grb2 SH2) | phosphorylation enrichment (c-Abl (mouse)) | phosphorylation enrichment (FGFR1) | phosphorylation enrichment (EPHB1) | phosphorylation enrichment (FGFR3) | phosphorylation enrichment (AncSZ) | phosphorylation enrichment (Fer (mouse)) | phosphorylation enrichment (c-Src) | phosphorylation enrichment (Jak2) | phosphorylation enrichment (EPHB2) | phosphorylation enrichment (Fyn) | phosphorylation enrichment (Fes) | phosphorylation enrichment (Hck) | phosphorylation enrichment (MERTK) |
| --- | --- | --- | --- | --- | --- | --- | --- | --- | --- | --- | --- | --- | --- | --- | --- | --- |
| GLCSYYETSKM [MAGED2_Y449_R446C] | 1.2 | 0.72 | 0.818 | 0.955 | 6.32 | 1.67 | 4.99 | 1.39 | 1.01 | 1.81 | 1.3 | 1.11 | 0.68 | 1.18 | 0.926 | 1.25 |
| SEDSEYYKAFE [CASQ2_Y178] | 0.558 | 0.614 | 0.827 | 0.695 | 0.58 | 0.656 | 0.98 | 1.71 | 0.535 | 0.698 | 1.17 | 0.611 | 0.621 | 1.16 | 0.61 | 0.494 |
| EEALFYLTRVE [SET_Y119_H118Y_YF] | 0.414 | 0.796 | 0.774 | 1.03 | 0.599 | 0.967 | 1.05 | 1.43 | 0.835 | 0.557 | 1.61 | 0.828 | 0.58 | 1.67 | 0.68 | 0.472 |
| DYLEKYYKFGS [NNMT_Y24] | 0.623 | 0.727 | 0.922 | 0.458 | 0.486 | 0.33 | 0.553 | 0.631 | 0.369 | 0.636 | 0.791 | 0.436 | 0.436 | 0.768 | 0.402 | 0.494 |
| PEAALYGRFTF [FYN_Y440_I445F] | 0.328 | 0.563 | 0.652 | 4.39 | 1.29 | 1.14 | 0.971 | 1.21 | 2.75 | 7.87 | 1.41 | 1.2 | 10.1 | 1.6 | 8.89 | 5.92 |
| EQKKFYNATKK [SCN5A_Y1495_M1498T_YF] | 0.606 | 0.729 | 0.996 | 0.497 | 0.412 | 0.383 | 0.487 | 0.668 | 0.374 | 0.554 | 0.436 | 0.348 | 0.437 | 0.674 | 0.449 | 0.404 |
| KNAEKYAEEDW [HSPA9_Y568_R573W] | 0.541 | 0.541 | 0.735 | 0.895 | 0.763 | 0.667 | 0.776 | 1.32 | 0.487 | 0.51 | 1.21 | 0.727 | 0.533 | 1.56 | 0.52 | 0.533 |
| EALDFYGELRT [PTEN_Y155_V158L] | 0.503 | 0.731 | 0.775 | 0.843 | 0.571 | 0.771 | 0.964 | 1.27 | 0.779 | 0.805 | 1.33 | 0.764 | 0.933 | 1.48 | 1.25 | 0.453 |
| AALSAYAAQRP [PTPRN2_Y249] | 0.457 | 0.662 | 0.813 | 0.377 | 0.406 | 0.299 | 0.433 | 0.439 | 0.347 | 0.315 | 0.462 | 0.353 | 0.305 | 0.491 | 0.386 | 0.312 |
| TKDTFYQQPMF [GBA_Y451_K452Q] | 0.902 | 0.637 | 0.793 | 3.38 | 0.605 | 0.583 | 0.589 | 1.07 | 2.41 | 0.639 | 0.648 | 2.01 | 0.664 | 0.805 | 0.91 | 4.31 |
| FRQLQYCPSVE [CTNND2_Y508_YF] | 0.489 | 0.658 | 0.876 | 0.808 | 0.525 | 0.669 | 0.861 | 0.949 | 0.514 | 0.456 | 0.901 | 0.605 | 0.501 | 1.15 | 0.499 | 0.478 |
| QRCFVYFFSFL [PTEN_Y176_R173C_YF] | 1.09 | 1.27 | 2 | 1.3 | 0.765 | 1.13 | 1.16 | 1.48 | 1.06 | 1.48 | 2.19 | 0.526 | 1.47 | 2.21 | 0.65 | 0.69 |
| SVVVPYAPPEV [TP53_Y220_E221A] | 0.463 | 0.602 | 0.766 | 0.73 | 0.589 | 0.508 | 0.595 | 0.756 | 0.474 | 0.427 | 0.719 | 0.499 | 0.422 | 0.814 | 0.43 | 0.423 |
| DPYHVYIKNRV [KCNE3_Y95] | 1.09 | 0.762 | 0.874 | 0.832 | 0.407 | 0.544 | 0.628 | 0.973 | 0.375 | 2.15 | 0.872 | 0.567 | 1.02 | 1.02 | 0.958 | 0.396 |
| IEPVIDVVQRR [ANOS1_Y217_Y217D] | 0.608 | 0.517 | 0.848 | 0.624 | 0.393 | 0.379 | 0.592 | 1.02 | 0.354 | 0.258 | 0.638 | 0.566 | 0.39 | 0.98 | 0.459 | 0.36 |
| QSKGIYFVQLE [MGAT4B_Y262_YF] | 0.658 | 0.854 | 0.96 | 1.63 | 1.09 | 0.972 | 1.41 | 1.51 | 0.713 | 1.54 | 1.88 | 2.44 | 1.1 | 1.71 | 0.936 | 2.38 |
| SVVVPDEPPEV [TP53_Y220_Y220D] | 0.576 | 0.794 | 0.755 | 0.782 | 0.724 | 0.706 | 0.687 | 1.33 | 0.647 | 0.522 | 1.19 | 0.665 | 0.582 | 1.39 | 0.567 | 0.586 |
